Test results published in patent US9360484B2, “Anti-FcRH5 antibodies and immunoconjugates and methods of use” (Genentech, Inc., priority 2009, dated 2016).

B1: hu10A8 v1: humanized 10A8 antibody, variable domains SEQ ID NO: 19 and SEQ ID NO: 21 (antibody, V domains shown)
VH: EVQLVESGGGLVQPGGSLRLSCAASGFTFSSYAVSWVRQAPGKGLEWVATISSGGSLTFYLDSVRGRFTISRDNSKNTLYLQMNSLRAEDTAVYYCARPIPDYYALDYWGQGTLVTVSS
VL: DIQMTQSPSSLSASVGDRVTITCKASQDVSTAVAWYQQKPGKAPKLLIYSASYRYTGVPSRFSGSGSGTDFTLTISSLQPEDFATYYCQQHFSSPRTFGQGTKVEIKR
B2: 13G9: murine monoclonal antibody binding human FcRH5 (antibody, V domains shown)
VH: EVQLVQSGPELKKPGETVKISCKASGYTFTNYGMNWVKQAPGKGLKWMGWVNTYTGEPTYTDDFKGRFAFSVETSASTVFLQINNLKNEDTATYFCARRSIPYYYAMDYWGQGTSLT
VL: DIVMTQSQKIMSTSVGDRVNVTCKASQNVGSNVAWYHQKPGQSPKALIYSASYRYSGVPDRFTGSGSGTDFTLTISNVQSEDLAEYFCQQYKTWTFGGGTKLEIKR
B3: 10A8: murine anti-FcRH5 monoclonal antibody, light chain variable domain SEQ ID NO: 18, heavy chain variable domain SEQ ID NO: 20 (antibody, listed as Mus musculus, V domains shown)
VH: EVQLVESGGGLVKPGGSLKISCAASGFTFSSYAVSWVRQTPEKRLEWVATISSGGSLTFYLDSVRGRFTISRDNAKNTLYLQMSSLRSEDTAMYYCARPIPDYYALDYWGQGTSVTVSS
VL: DIVMTQSHKFMSTSVRDRVSITCKASQDVSTAVAWYQQKPGQSPKLLIYSASYRYTGVPDRFTGSGSGTDFTFTISSVQAEDLAVYYCQQHFSSPRTFGGGTKVEIKR
modifications: Variable Domain of Heavy Chain of Humanized Antibody (mu10A8)

Tests used:
human FcRH5 [1] = target: T1, human FcRH5 (Homo sapiens, UniProt Q96RD9, G418D/L733P/S890P/V466I/Y267H); experiment: Affinity determination (Scatchard analysis) on cells expressing human FcRH5; assay type: binding; conditions: by FACS and Scatchard analysis
T1 construct: expressed in transfected cells; host or cells: OPM2 multiple myeloma cells
T1 sequence (Q96RD9 16-977 Y267H/G418D/V466I/L733P/S890P): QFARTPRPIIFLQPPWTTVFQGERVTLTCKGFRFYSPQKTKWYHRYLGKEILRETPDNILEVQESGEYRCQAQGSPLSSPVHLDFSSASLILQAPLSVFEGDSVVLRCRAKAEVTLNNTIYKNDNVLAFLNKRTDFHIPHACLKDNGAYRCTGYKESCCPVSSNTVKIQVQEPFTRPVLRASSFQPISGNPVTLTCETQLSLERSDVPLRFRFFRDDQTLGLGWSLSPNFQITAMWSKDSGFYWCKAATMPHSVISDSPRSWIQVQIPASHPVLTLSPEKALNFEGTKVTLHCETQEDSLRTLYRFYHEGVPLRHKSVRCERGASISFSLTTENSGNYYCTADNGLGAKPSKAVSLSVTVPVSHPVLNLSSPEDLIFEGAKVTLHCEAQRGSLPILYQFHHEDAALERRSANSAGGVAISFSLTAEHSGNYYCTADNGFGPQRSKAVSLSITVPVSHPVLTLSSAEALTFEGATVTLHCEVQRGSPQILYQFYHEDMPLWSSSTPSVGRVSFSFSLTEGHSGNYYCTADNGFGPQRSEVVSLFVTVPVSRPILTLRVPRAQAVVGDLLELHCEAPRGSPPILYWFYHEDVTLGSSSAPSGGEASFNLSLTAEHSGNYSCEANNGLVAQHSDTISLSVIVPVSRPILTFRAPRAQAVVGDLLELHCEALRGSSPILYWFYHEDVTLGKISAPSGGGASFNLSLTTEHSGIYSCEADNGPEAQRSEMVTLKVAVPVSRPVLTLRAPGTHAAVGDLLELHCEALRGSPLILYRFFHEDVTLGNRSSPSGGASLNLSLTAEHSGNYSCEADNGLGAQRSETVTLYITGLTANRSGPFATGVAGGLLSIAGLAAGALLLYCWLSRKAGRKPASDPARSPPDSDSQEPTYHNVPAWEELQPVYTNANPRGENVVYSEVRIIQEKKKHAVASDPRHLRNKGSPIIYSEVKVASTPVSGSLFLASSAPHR
Protocol: To further determine binding of the FcRH5 murine antibodies and IgG clones, binding of iodinated IgG variants to OPM2 cells expressing human FcRH5 and SVT2 cells expressing cynomologous FcRH5, Scatchard analysis was performed.
After a four hour incubation at 4° C., cells were washed and cell pellet counts were read by a gamma counter (1470 WIZARD Automatic Gamma Counter; Perkin Elmer, Walthem, Mass.). All points were done in triplicate and counted for 10 minutes. The average CPM was used for Kd calculation using the New Ligand (Genentech, South San Francisco, Calif.) program.

[2] = system: OPM2.CMV.PD.FcRH5.5P.2 cells; experiment: In vitro cell proliferation assay (CellTiter-Glo Luminescent Cell Viability Assay); assay type: cell-based, human; conditions: OPM2.CMV.PS.FcRH5.5P.2 cells, 3 days incubation
Excerpt: The homogeneous “add-mix-measure” format results in cell lysis and generation of a luminescent signal proportional to the amount of ATP present. The substrate, Beetle Luciferin, is oxidatively decarboxylated by recombinant firefly luciferase with concomitant conversion of ATP to AMP and generation of photons. Viable cells are reflected in relative luminescence units (RLU). Data can be recorded by luminometer or CCD camera imaging device. […] Alternatively, photons from luminescence can be counted in a scintillation counter in the presence of a scintillant.
3. The plates were equilibrated to room temperature for approximately 30 minutes.
5. The contents were mixed for 2 minutes on an orbital shaker to induce cell lysis.
6. The plate was incubated at room temperature for 10 minutes to stabilize the luminescence signal.

human FcRH5 [3] = target: T2, human FcRH5 (Homo sapiens, UniProt Q96RD9); experiment: Affinity determination (Biacore analysis) of murine anti-FcRH5 IgGs; conditions: murine IgG captured on chip, 25° C., 1:1 Langmuir binding model; read-out: Affinity (Biacore) to Hu antigen
T2 construct: vectors that expresses the His-tagged extra-cellular domain (ECDs) of the FcRH5/IRTA2 into CHO cells; His tag (HIS6); made in house; host or cells: CHO cells (transient transfection)
T2 sequence (Q96RD9 16-851 limits assumed): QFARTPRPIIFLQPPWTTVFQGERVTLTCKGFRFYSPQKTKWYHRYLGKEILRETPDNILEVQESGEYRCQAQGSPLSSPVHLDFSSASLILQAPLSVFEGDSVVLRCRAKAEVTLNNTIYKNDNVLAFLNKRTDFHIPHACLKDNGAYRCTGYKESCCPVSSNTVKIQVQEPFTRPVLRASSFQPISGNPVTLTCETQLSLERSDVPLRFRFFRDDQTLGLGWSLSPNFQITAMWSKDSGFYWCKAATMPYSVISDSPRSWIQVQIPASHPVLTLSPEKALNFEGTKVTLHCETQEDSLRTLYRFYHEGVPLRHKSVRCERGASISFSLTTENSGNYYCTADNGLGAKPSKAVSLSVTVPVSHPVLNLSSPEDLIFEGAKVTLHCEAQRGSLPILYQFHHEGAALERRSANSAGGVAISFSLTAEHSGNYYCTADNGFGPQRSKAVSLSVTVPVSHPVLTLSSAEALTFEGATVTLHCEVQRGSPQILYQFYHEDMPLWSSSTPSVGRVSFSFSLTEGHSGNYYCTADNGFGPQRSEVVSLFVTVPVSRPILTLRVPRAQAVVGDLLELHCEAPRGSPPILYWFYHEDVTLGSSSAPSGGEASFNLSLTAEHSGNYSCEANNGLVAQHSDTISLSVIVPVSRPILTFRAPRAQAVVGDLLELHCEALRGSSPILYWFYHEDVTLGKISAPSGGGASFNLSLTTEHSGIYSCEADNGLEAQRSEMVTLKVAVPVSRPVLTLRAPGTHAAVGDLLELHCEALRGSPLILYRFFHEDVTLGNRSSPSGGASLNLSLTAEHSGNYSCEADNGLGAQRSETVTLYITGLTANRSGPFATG
Protocol: The FcRH-binding affinities of IgGs were calculated from association and dissociation rate constants measured using a Biacore 2000 surface plasmon resonance system (BIAcore, Inc.). A biosensor chip was activated for covalent coupling of either anti-murine IgG (BR-1008-338) using N-ethyl-N′-(3-dimethyaminopropyl)-carbodiimide hydrochloride (EDC) and N-hydroxysuccinimide (NHS) according to the supplier's instruction (BIAcore, Inc.). Briefly, for each cycle of kinetic analysis, 5 ul of 100 nM IgG was captured on the chip, two-fold serial dilution of various FcRHs were injected at a flow rate of 20 ul/min for 150 sec. Antigen dissociation was monitored for 180 sec before regeneration. Equilibrium dissociation constants at 25° C. were calculated by fitting the data with a 1:1 Langmuir binding model. Running buffer was PBS with 0.05% Tween −20. All the antibodies bound antigen with sufficient affinity to be used as a therapeutic.

cynomolgus FcRH5 = experiment: Cyno cross-reactivity by FACS on stably transfected cells (SVT2 cells expressing cynoFcRH5); assay type: binding, cynomolgus monkey; conditions: 1.0, 0.1 or 0.01 μg antibody per million SVT2 cells stably expressing cynoFcRH5
Chain of cynomolgus FcRH5 (as listed by the source): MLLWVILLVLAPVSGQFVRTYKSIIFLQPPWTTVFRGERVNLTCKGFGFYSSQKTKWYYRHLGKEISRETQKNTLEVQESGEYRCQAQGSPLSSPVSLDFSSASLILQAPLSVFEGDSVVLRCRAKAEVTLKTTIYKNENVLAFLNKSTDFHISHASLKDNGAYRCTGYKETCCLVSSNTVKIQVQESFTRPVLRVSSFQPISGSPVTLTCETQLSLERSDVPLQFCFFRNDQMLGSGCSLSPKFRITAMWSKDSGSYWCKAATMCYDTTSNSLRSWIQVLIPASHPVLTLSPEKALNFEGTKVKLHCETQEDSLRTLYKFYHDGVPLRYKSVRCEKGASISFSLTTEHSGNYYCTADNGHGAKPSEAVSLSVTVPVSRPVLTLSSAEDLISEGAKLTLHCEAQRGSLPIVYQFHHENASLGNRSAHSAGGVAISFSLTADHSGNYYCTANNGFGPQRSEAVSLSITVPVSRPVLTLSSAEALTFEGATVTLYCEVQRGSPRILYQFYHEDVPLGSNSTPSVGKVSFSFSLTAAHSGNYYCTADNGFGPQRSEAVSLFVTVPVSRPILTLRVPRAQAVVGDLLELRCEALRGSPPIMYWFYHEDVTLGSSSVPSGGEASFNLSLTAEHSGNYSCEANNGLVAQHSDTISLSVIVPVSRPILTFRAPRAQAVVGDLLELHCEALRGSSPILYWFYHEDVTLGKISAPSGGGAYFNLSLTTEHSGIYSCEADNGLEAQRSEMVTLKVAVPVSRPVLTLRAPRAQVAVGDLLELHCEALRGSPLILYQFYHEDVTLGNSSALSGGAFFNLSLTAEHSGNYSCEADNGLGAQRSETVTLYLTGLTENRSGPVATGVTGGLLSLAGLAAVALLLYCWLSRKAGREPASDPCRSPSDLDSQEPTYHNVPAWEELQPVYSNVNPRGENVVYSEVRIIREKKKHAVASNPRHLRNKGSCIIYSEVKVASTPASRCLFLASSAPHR
Protocol: For additional FACS analysis of FcRH5 antibodies, 1.0 μg, 0.1 μg or 0.01 μg of antibody was titrated per million cells of BJAB cells stably expressing huFcRH5 and SVT2 cells stably expressing cynoFcRH5. Briefly, approximately 10^6 cells in 100 μl were incubated with varying amounts (1.0 ug, 01. ug or 0.01 ug) of murine Ab mu1H4, mu6H1, mu7D11, mu9E2, mu10A8, mu10F5, or mu13G9 per million cells of BJAB cells stably expressing huFcRH5 and SVT2 cells stably expressing cynoFcRH5. Incubation with 1.0 ug/10^6 cells of the appropriate Mu IgG isotype control was used as a negative control. PE conjugated Rat anti-MuIgG1 or Rat anti-MuIgG2a+b was used as the secondary detection antibody.

human FcRH1-6 = experiment: FACS cross-reactivity analysis on SVT2 cells stably expressing gD tagged huFcRH1-6; assay type: binding; conditions: 1.0 ug Ab (or 100 μl hybridoma supernatant) per 10^6 SVT2 cells expressing gD tagged huFcRH1-6
Protocol: To determine the cross-reactivity of FcRH5 antibodies, binding of IgG variants to SVT2 cells, expressing human FcRH1-6 were analyzed using FACS analysis.
Briefly, approximately 10^6 cells of SVT2 cells stably expressing gD tagged huFcRH1-6 in 100 μl were incubated with 1.0 ug of murine or chimeric Ab [Mu anti-gD (positive control), Mu anti-FcRH5 (1H4) (“mu1H4”), Mu anti-FcRH5 (4D10) (“mu4D10”), Mu anti-FcRH5 (6H1) (“mu6H1”), Mu anti-FcRH5 (7D11) (“mu7D11”), Ch anti-FcRH5 (7D11) (“ch7D11”), Mu anti-FcRH5 (8116) (“mu8H6”), Mu anti-FcRH5 (9E2) (“mu9E2”), or Mu anti-FcRH5 (13G9) (“mu13G9”)]. Incubation of SVT2 cells stably expressing the empty vector was incubated with the same antibodies and used as a negative control. PE conjugated Rat anti-MuIgG1, Rat anti-MuIgG2a+b, or Mu anti-HuIgG was used as the secondary detection antibody.
To further determine the cross-reactivity of FcRH5 antibodies, binding of IgG variant supernatants to SVT2 cells, expressing human FcRH1-6 were analyzed using FACS analysis.
Briefly, approximately 10^6 cells of SVT2 cells stably expressing gD tagged huFcRH1-6 were incubated with 1.0 μg purified Ms anti-gD antibody or 100 μl (concentration unknown) of murine Ab hybridoma supernatant (Mu anti-FcRH5 (10A8) (“mu10A8”), Mu anti-FcRH5 (10F5) (“mu10F5”)). […]

Row | Molecule | relative binding affinity of humanized version 1 and the chimera (human FcRH5 [1]) | in vitro cell growth inhibition (in words) [2] | Kd (human FcRH5 [3]) | cross reaction with cynomolgus FcRH5 by FACS analysis (cynomolgus FcRH5) | specificity of binding among huFcRH1-6 by FACS (human FcRH1-6)
1 | B1 | equivalent to the chimera | no in vitro cell growth inhibition |  |  | 
2 | B2 |  |  | 19 nM | cross react with cynomolgus FcRH5 | 
3 | B3 |  |  |  | cross react with cynomolgus FcRH5 | specifically bind FcRH5
